Among the data in patent publication EP4592315A1 are EC50 values, retold here.

For experiment [1], the target named is FcRs expressed by THP-1 cells. As to the kind of experiment: flow cytometry on THP-1 cells (self-expressing FcRs), anti-human IgG-Fc PE.
Another experiment concerns the target human FcγRIIb (human) (UniProt P31994). As to the kind of experiment: flow cytometry on CHOS-hCD32b cells (overexpressing human FcγRIIb), anti-human IgG-Fc PE. A general note: Flow cytometry measures light scatter and fluorescence of single cells or particles in a stream.

Chain of human FcγRIIb (human) (P31994 43-310): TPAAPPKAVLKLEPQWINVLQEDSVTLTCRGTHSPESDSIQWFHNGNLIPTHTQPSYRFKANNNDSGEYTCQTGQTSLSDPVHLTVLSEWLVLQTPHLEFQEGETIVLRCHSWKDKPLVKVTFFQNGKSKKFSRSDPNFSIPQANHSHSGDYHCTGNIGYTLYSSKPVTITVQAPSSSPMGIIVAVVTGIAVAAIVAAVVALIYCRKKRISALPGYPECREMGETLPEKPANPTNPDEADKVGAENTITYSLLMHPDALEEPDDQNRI

By EC50 is commonly meant the concentration that produces a half-maximal response. In experiment [1], Urelumab (antibody) gave an EC50 of 0.462 nM.

With Trastuzumab (antibody), the EC50 in experiment [1] was determined as 0.731 nM. Turning to Pertuzumab (antibody), the EC50 with human FcγRIIb (human) is 1.35 nM; in experiment [1] it was 0.716 nM.
